Values joined by “and” are separate entries in the source; they are usually repeats but may differ in a detail not shown here. Equal values may be shown once. Where no end group is shown, it is not given here.
Experiments:
[1] = molecular target: human ABCA1 transporter (ATP-binding cassette transporter A1) (human) (UniProt O95477); assay: cell-based or functional assay
[2] = molecular target: human ABCA1 transporter (ATP-binding cassette transporter A1) (human) (UniProt O95477); assay: 125I-L-37pA (1 µg/ml, 1 hour, 4° C.) bound to ABCA1-transfected HeLa cells, no competitor
[3] = molecular target: human ABCA1 transporter (ATP-binding cassette transporter A1) (human) (UniProt O95477); assay: two-step sequential competition on ABCA1-transfected HeLa cells; competitor at 8 µM, tracer 125I-L-37pA

Sequence of UniProt O95477 (O95477 whole entry): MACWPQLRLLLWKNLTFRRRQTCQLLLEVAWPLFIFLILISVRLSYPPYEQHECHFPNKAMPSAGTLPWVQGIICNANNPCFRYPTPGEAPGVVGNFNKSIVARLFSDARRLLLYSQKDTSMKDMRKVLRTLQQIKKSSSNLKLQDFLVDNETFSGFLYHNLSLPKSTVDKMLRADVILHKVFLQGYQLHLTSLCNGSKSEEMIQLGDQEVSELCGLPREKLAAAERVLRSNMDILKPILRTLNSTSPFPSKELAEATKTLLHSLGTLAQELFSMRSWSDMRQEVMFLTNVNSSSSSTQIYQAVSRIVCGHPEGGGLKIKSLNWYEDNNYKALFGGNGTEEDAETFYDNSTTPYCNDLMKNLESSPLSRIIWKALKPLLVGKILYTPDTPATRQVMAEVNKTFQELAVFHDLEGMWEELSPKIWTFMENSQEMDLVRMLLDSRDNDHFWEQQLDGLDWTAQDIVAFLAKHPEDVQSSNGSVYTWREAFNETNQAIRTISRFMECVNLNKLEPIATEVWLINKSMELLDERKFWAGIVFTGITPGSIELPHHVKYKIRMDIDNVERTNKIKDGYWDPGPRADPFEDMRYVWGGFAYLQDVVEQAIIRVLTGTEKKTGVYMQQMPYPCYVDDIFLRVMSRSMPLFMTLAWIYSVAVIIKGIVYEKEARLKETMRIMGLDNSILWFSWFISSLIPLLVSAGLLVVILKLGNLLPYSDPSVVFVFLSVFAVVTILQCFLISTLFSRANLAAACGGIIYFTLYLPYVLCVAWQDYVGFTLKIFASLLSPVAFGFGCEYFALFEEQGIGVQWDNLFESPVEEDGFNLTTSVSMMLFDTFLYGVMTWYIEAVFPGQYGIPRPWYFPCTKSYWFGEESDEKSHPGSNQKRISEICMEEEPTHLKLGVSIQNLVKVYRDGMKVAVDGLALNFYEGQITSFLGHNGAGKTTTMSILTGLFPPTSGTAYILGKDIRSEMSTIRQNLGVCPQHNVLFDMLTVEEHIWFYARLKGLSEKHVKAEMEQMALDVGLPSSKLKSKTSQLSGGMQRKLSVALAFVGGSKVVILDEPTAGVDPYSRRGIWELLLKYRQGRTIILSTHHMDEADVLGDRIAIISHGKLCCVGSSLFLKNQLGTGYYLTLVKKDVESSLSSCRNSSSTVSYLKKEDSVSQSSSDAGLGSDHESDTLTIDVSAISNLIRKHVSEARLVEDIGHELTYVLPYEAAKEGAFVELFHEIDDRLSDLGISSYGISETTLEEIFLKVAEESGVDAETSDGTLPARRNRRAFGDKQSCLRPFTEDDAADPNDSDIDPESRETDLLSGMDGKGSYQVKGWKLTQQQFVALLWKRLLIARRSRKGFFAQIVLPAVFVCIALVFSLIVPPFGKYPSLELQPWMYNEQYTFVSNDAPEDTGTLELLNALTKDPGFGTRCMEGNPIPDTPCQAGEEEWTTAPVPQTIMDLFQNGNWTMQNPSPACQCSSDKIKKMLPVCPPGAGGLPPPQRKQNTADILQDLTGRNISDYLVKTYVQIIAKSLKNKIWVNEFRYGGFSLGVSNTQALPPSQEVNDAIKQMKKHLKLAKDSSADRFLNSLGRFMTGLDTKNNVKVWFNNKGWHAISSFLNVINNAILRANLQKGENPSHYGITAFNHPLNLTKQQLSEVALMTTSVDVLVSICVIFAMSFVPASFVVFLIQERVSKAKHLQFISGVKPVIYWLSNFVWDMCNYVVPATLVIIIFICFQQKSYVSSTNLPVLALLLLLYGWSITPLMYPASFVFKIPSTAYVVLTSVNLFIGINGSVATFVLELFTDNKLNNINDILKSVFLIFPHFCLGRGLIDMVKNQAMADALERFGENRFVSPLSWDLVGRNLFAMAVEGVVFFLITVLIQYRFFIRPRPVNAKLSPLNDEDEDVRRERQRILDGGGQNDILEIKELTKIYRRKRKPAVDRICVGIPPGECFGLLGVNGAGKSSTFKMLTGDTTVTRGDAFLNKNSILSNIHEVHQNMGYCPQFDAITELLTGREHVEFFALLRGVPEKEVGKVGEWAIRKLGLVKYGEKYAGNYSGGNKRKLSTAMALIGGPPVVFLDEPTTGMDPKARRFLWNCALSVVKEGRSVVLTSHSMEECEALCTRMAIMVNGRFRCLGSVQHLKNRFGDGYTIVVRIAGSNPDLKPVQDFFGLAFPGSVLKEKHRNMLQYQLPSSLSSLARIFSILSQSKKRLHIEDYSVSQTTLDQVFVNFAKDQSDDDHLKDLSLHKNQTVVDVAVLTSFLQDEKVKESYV

cholesterol and phospholipid efflux, ABCA1 cells against control cells [1]: 2 fold and 4 fold | concentration at which lipid efflux begins to show saturation [1]: 2 µM | cell-bound radiolabeled peptide in the absence of a competitor (pmol/mg cell protein) [2]: 35 | percent of labeled L-37pA binding blocked [3]: 40%
Binder: DWLKAFYDKVAEKLKEAFPDWLKAFYDKVAEKLKEAF (also: tracer form 125I-labelled with iodine monochloride) [L-37pA peptide]

— patent US7572771
